The values below are quoted from earlier work in publication PMC5883021.

One may read the Kd as the equilibrium constant for the complex coming apart.

This data set has as its target F-actin (Oryctolagus cuniculus) (UniProt P68135).

For the substance TAGLN2 (from UniProt P37802), the Kd is 7.39 µM.
